Test results reported in ChEMBL document CHEMBL1139252, “Inhibition of purple acid phosphatase with alpha-alkoxynaphthylmethylphosphonic acids” (Bioorg Med Chem Lett, 2009).

Key:
Details in all cases: Phaseolus vulgaris
[1] = substrate: O=P(O)(O)C(O)c1cccc2ccccc12; experiment: (§1) Activity of red kidney bean PAP at pH 6.2
[2] = substrate: CCCCCCCCOC(c1cccc2ccccc12)P(=O)(O)O; experiment: as §1
[3] = substrate: O=P(O)(O)Cc1cccc2ccccc12; experiment: as §1
[4] = substrate: CCCCCCOC(c1cccc2ccccc12)P(=O)(O)O; experiment: as §1
[5] = substrate: CCCCCCCCCCOC(c1cccc2ccccc12)P(=O)(O)O; experiment: as §1

B1: Fe(3+)-Zn(2+) purple acid phosphatase (Phaseolus vulgaris), P80366 (protein)
chain: MGVVKGLLALALVLNVVVVSNGGKSSNFVRKTNKNRDMPLDSDVFRVPPGYNAPQQVHITQGDLVGRAMIISWVTMDEPGSSAVRYWSEKNGRKRIAKGKMSTYRFFNYSSGFIHHTTIRKLKYNTKYYYEVGLRNTTRRFSFITPPQTGLDVPYTFGLIGDLGQSFDSNTTLSHYELSPKKGQTVLFVGDLSYADRYPNHDNVRWDTWGRFTERSVAYQPWIWTAGNHEIEFAPEINETEPFKPFSYRYHVPYEASQSTSPFWYSIKRASAHIIVLSSYSAYGRGTPQYTWLKKELRKVKRSETPWLIVLMHSPLYNSYNHHFMEGEAMRTKFEAWFVKYKVDVVFAGHVHAYERSERVSNIAYKITNGLCTPVKDQSAPVYITIGDAGNYGVIDSNMIQPQPEYSAFREASFGHGMFDIKNRTHAHFSWNRNQDGVAVEADSVWFFNRHWYPVDDST
Q: B1 was tested. Which Km [1] did it give?
A: 5.31 mM

Q: What about the Km [2] of the same protein?
A: 3.41 mM

Q: And the Km [3]?
A: 5.78 mM

Q: And the Km [4]?
A: 4.28 mM

Q: And the Km [5]?
A: 3.1 mM
